B1: 3aG3: N-terminal anti-tau clone, Table 6; SEQ ID NO: 424 (protein)
chain: QVQLQESGPSLVKPSQTLSLTCTVSGFSLSSNGVGWVRQAPGKVPEWVGDISSSGKAYANPALKSRLSITRDTAKTQVFLSLSSVTTEDTAVYYCVRCRDGGVSYGYDIDYWGPGLLVTVSSEGKSSGASGESKVDDQAVLTQPPSVSGSPGQRVSITCSGSSSNIGGGNYLSWFQQVPGSAPKLLIYGATSRASGVPDRFSGSRSGNTATLTISSLQAEDEADYYCASFDTSSGGIFGAGTRLTVLG
modifications: 3aG3 amino acid sequence
B2: 3bF4: anti-tau clone, Table 7; SEQ ID NO: 421 (protein)
chain: QVQLQESGPSLVKPSQTLSLTCTVSGFSLSSNGVGWVRQAPGKVPEWLGDISSVGKKYANPALKSRLSFTRDTSKSQVSLSLSSVTTEDTAVYYCVKCRDGGVTYGYDIDYWGPGLLVTVSSEGKSSGASGESKVDDQAVLTQPSSVSKSTGQTVSITCSGSSSNVGLRNYVTWFQQVPGSAPKLLIYGATSRASGIPDRFSGSRSGNTATLIISSLQAEDEADYYCASADTNDGGVFGSGTRLTVLG
modifications: 3bF4 amino acid sequence
B3: CC7: human-specific anti-tau clone, Table 10; SEQ ID NO: 365 (protein)
scFv: QVQLQESGPSLVKPSQTLSLTCTVSGFSLTSNAVIWVRQAPGKAPEWVALIDVDGDAAYDPALKSRLSITRDTSKSQVSLSLRSVTTEDTAVYYCARDYGSWGYVSDIDYWGPGLLVTVSSEGKSSGASGESKVDDRVVRTQPSSVSGSLGQRVSITCSGSYITGSSVGWFQQVPGSGLKTVIYDNNDRPSGVPDRFSGSKSGDTATLTISSLQAEDEADYYCASYDTSNIGLFGSGTRLTVLG
modifications: CC7 amino acid sequence
B4: MD9: anti-tau clone, Table 10; SEQ ID NO: 373 (protein)
scFv: QVRLQESGPSLVKSSQTLSLTCTVSGFSLTRESIAWVRQAPGKVPEWLGGVGIDGTSYYSPALKSRLSITRDTSKSQASLSLSSVATEDTAMYYCARNYIDFEYWGPGLLVTVSSEGKSSGASGESKVDDQAVLTQLSSVSGSLGQRISITCSGSSSNVGIYDVSWFQQLPGSGLRTVIYGTNNRPSGVPDRFSGSRSGNTATLTISSLQSEDEAIYYCAAGDSSTIAVFGSGTRLTVLG
modifications: MD9 amino acid sequence
B5: 3bD11: anti-tau clone, Table 10; SEQ ID NO: 637 (protein)
scFv: RVRLQGSGPSLVKPSQTLSLTCTVSGFSFDSYYVGWVRQAPGKALEWLGNIYSTGRAFYNPALKSRLSITRDTSKSQVSLSVSSVTIEDTALYYCVRGSYYHGGGNGMVDFFDYWSPGLLVTVSSEGKSSGASGESKVDDQVVRTQPSSVSGSLGQRVSITCSGSSSNVGYGNYVGWFQQVPGSAPKLLIYAATSRASGVPDRFSGSRSGNTATLTIDSLQAEDEADYYCSSYQRGNTGVFGSGTRLTVLG
B6: 3aA6: anti-tau clone, Table 8; SEQ ID NO: 418 (protein)
chain: QVRLQESGSSLVKPSQTLSLVCTVSGFPLTSNAVGWVRQAPGKAPEWLGLIDIDGDTAYNPALESRLSITRDTSKSQVSLSLSSVAIEDTAVYYCARHYDKWGYADSIDYWGPGLLVTVSSEGKSSGASGESKVDDQALLTQPSSVFGSLGQRVSITCSGSSSNVGYGDYVGWYQQVPGSAPKLLIYDATTRASGVPDRFSGSRSGNTATLTISSLQAEDEADYYCASYQNERSGVFGSGTRLTVLG
modifications: 3aA6 amino acid sequence
B7: 3aB7: anti-tau clone, Table 7; SEQ ID NO: 420 (protein)
chain: QVQLQESGPSLVKPSQTLSLTCTVSGFSLTSNGVGWVRQAPGKVPEWVGDKSSAGKTYGNPALKSRLSITRDTSKSQVSLSLSSVTTEDTAVYYCVRCRDGGVTYGYDVDYWGPGLLVTVSSEGKSSGASGESKVDDQAVLTQPSSVSKSLGQSVSITCSGSSSNVGYGDVVSWFQQFPGSAPKLLIFGTTTRASGVPDRFSGSRSGNAATLTINSLQAEDEADYYCASFDSDSGGIAGSGTRLTVLG
modifications: 3aB7 amino acid sequence

Tests used:
htau40 = target: T1, htau40 (Homo sapiens, UniProt P10636); experiment: Biacore X100 SPR kinetics of anti-tau mAbs on immobilised htau40; type: binding
T1 construct: Full length tau (hT40)
Description: For anti-tau mAb SPR measurements, htau40 was conjugated to the surface of a CM5 sensor chip using amine coupling as explained previously. Briefly, 2 μg/mL htau40 in 10 mM Sodium acetate buffer (pH 4.0) was passed over the activated chip surface (EDC/NHS) in flow cell 2 for a period for 45 s followed by blocking with 1 M ethanolamine-HCl PH 8.5. Flow cell 1 was set up as reference control and blocked simultaneously. Final immobilisation level of htau40 (Rmax) was approximately 250 RU. Following a minimum of three start-up cycles, increasing concentrations (0.78 nM-25 nM) of the mAb in HBS-EP+ buffer was added at a rate of […] to the chip. The mAb was added for a 120 s association period and 600 s dissociation period followed by a regeneration cycle of 30 s injection of glycine buffer pH 1.5 in between each cycle. Binding responses were analysed in Biacore X100 evaluation software and data fitted to a 1:1 binding model to obtain kinetic and affinity characterisation.
For anti-tau mAb SPR measurements (Biacore X100™) and epitope mapping, the same methodologies described above (see Example 16) were followed. Kinetic rates and equilibrium binding constants of additional anti-tau mAbs and the regions recognised on hT40 are given in the Table 25 below

[1] = target: T2, hT40 (T441, SEQ ID NO: 1) (Homo sapiens, UniProt P10636); experiment: Biacore X100 SPR kinetics of scAbs for hT40; type: binding
T2 construct: Full length tau (hT40)
Description: Surface plasmon resonance (SPR) is widely regarded as the gold standard for real time measurement of protein-protein interactions such as antibody binding. All SPR experiments were carried out using a Biacore X100 machine and HBS EP+ running buffer (GE Healthcare). A ‘capture’ method was followed for affinity measurements, where an anti-human constant kappa chain (HuCk) antibody was conjugated to the surface of a CM5 sensor chip using an amine coupling kit and scAb molecules were immobilised via their HuCk domain. Amine coupling is a very common approach for immobilising the ligand to the chip surface. […] The capture antibody was diluted 1/100 in 10 mM Sodium acetate buffer pH 5.0 and passed over the activated chip surface for a period of at least 420 s. Final ligand immobilisation levels over 12,000 RU were deemed to be satisfactory.
Following immobilisation, the level of each scAb to be captured was identified using the standard SPR equation with a theoretical RMax of 100 RU. Analyte MW refers to the molecular weight of hT40 or dGA/dGAE molecules, while ligand MW refers to the molecular weight of the scAbs tested. RL is the desired capture level and S refers to the stoichiometric ratio:
The scAb to be tested was added only to flow cell 2 so that flow cell 1 could act as a control to subtract any interaction with the analyte and the chip surface. Both single and multi-cycle runs were utilised using wizards developed in the Biacore X100 control software which are both accepted methods of kinetic analysis (Karlsson, R., et al. Analyzing a kinetic titration series using affinity biosensors (2006) Analytical Biochemistry 349:136-47). The multi-cycle protocol was as follows-Three start-up cycles composed of an initial capture, to the desired level, of the scAb to be tested was performed followed by a 30 s injection of glycine buffer pH 2.0 after each cycle to regenerate the chip surface. […] Following three start-up cycles increasing concentrations (0.15625 nM-100 nM) of the target to be tested were added to the chip surface after the desired scAb capture. The target was added for a 120 s association period and 420 s dissociation period followed by another regeneration, 30 s injection of glycine buffer pH 2.0 in between each cycle.
The single cycle kinetics protocol was similar and utilised the same level of scAb capture. Three start-up cycles were used followed by 5 increasing concentrations of the analyte (6.25 nM-100 nM) for an association period of 120 s followed by a dissociation period of 420 s for each concentration. In single cycle kinetics the regeneration step was performed only after the final analyte concentration was added. Binding responses were analysed in Biacore X100 evaluation software and data fitted to a 1:1 binding model to obtain kinetic and affinity characterisation.

[2] = system: hT40, dGA, dGAE and truncated tau fragments; experiment: Binding ELISA / epitope mapping of anti-tau scAbs with truncated tau proteins and 13mer peptides; set-up: species or system human; details: for Short epitope on hT40: Table 18, '3a' & '3b' series scAbs; for hT40 binding region: second Table 25, mAb format; for Tau proteins/fragments with positive scAb reactivity: binding ELISA; for Shortest region bound on hT40: incl. 13mer peptides
Description: A series of binding ELISA was performed using various truncated versions of the tau protein and 13mer peptide libraries spanning the entire hT40 molecule for mapping the epitopes of anti-tau scAbs (Full list of protein antigens used is given in Table 14). In general, ELISA plates were coated with 1 μg/ml hT40 or dGA or dGAE or other truncated versions of the protein and in the case of biotinylated peptides, plates were coated with 5 μg/ml Streptavidin followed by 1 μg/ml biotinylated peptide. The plates were blocked with 2% MPBS and scAb samples added at desired starting concentrations and double diluted across the plate. Binding was detected using anti-Human C Kappa HRP conjugated secondary antibody and the resulting immunoreaction was developed and absorbance values measured as described above.
Selected E specific scAbs and their specific binding to dGAE is shown below (FIG. 8A-E).
Similarly, dGA binding ‘NS’, ‘S’ and ‘M’ group scAbs were subjected to further antigen binding ELISA using shorter tau proteins and biotinylated 13mer peptides as shown below (FIG. 10A-F) and (FIG. 11A-R).

[3] = second Table 25, newly converted mAbs, hT40
[4] = Table 25, '3a' and '3b' scAbs, hT40
[5] = residue numbers of SEQ ID NO: 1 (hT40), CDR Tables 1-11
[6] = Table 27, mAb format, immobilised htau40
[7] = Table 23, scAb captured, T441 (hT40) analyte, 1:1 model
[8] = Table 26 summary, top scAbs, residues of hT40

T2 sequence (P10636 1-441 isoform P10636-8): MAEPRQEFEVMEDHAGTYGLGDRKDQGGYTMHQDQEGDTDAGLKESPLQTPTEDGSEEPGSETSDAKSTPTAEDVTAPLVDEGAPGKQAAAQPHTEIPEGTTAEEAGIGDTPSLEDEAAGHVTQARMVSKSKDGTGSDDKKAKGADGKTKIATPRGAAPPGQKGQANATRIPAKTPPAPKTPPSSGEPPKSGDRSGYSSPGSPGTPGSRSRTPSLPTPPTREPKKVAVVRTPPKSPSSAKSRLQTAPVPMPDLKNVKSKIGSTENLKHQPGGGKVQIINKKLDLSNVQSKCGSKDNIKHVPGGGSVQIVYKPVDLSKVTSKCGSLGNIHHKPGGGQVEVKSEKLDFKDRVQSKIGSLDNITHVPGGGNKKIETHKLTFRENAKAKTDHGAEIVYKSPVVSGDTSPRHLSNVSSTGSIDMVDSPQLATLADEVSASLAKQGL
T1 sequence (P10636 1-441 isoform P10636-8): as above

Molecule | ka (htau40; [3]) [M⁻¹ s⁻¹] | kd (htau40; [3]) [s⁻¹] | ka [1, 4] [M⁻¹ s⁻¹] | kd [1, 4] [s⁻¹] | Short epitope on hT40 [2] | Epitope [2, 5] | hT40 binding region [2] | also measured
B1 | 1.532e+07 | 0.004751 | 62940 | 0.0003869 | 1-49 | 1-49 | 1-15 | 
B2 |  |  | 109300 | 0.01532 | 49-111 | 49-111 |  | 
B3 |  |  |  |  |  | 145-157 |  | ka (htau40; [6]): 4.576e+06 M⁻¹ s⁻¹; kd (htau40; [6]): 0.03164 s⁻¹; ka [1, 7]: 295700 M⁻¹ s⁻¹; kd [1, 7]: 0.0003659 s⁻¹; Tau proteins/fragments with positive scAb reactivity ([2]; Table 17, 'C' group scAbs): hT40, 1-319; Shortest region bound on hT40 ([2]; Table 17, 'C' group scAbs): 145-157; Epitope [2, 8]: 145-157; Detection scAb (Epitope) ([2]; Table 28 (LoD table), residues of hT40): CC7 (145-157); binding region on hT40 ([2]; amino acid residues of hT40): 145-157
B4 | 66200 | 0.001462 |  |  |  | 373-385 | 373-385 | Tau proteins/fragments with positive scAb reactivity ([2]; Table 16, NS, S and M clones): hT40, 297-390 (dGA), 297-391 (dGAE), 369-390, 369-391; Shortest region bound on hT40 ([2]; Table 16, NS, S and M clones): 373-385; Epitope [2, 8]: 373-385
B5 | 2.671e+06 | 0.003979 |  |  |  | 37-49 | 37-49 | 
B6 |  |  | 19000 | 0.0188 | 147-157 | 147-157 |  | 
B7 |  |  | 207200 | 0.01435 | 49-111 | 49-111 |  | 

— patent US20250355001A1, “METHOD FOR DETECTING A TAU PROTEIN FRAGMENT IN A SAMPLE” (GTINVENT LIMITED, priority 2022, published 2025)
